Changes are numbered by the printed parent chain. Read-outs that look alike come from different tables or passages of the source.
How the values were obtained:
[1] = molecular target: MfArtemin-MMH (cynomolgous monkey (Macaca fascicularis)); test: cell-based or functional assay
[2] = molecular target: T1, hArtemin-MMH (human); test: cell-based or functional assay
T1 chain: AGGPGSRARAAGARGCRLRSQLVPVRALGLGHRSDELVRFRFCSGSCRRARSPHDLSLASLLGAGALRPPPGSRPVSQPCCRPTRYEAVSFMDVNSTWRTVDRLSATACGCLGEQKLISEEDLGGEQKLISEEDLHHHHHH

[3] = molecular target: T2, mArtemin-MMH (mouse); test: cell-based or functional assay
T2 chain: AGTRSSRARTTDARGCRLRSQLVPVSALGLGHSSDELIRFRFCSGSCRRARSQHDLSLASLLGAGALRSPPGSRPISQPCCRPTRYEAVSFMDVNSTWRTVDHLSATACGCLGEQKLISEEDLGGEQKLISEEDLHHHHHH

[4] = molecular target: T1, hArtemin-MMH; test: blocking ELISA, 75 pM hARTN.mmh binding to plate-coated hGFRa3.hFc
[5] = molecular target: T2, mArtemin-MMH; test: blocking ELISA, 150 pM msARTN.mmh binding to plate-coated hGFRa3.hFc
[6] = molecular target: MfArtemin-MMH (cynomolgous monkey (Macaca fascicularis)); test: blocking ELISA, 400 pM mfARTN.mmh binding to plate-coated hGFRa3.hFc
[7] = molecular target: MfArtemin-MMH (cynomolgous monkey (Macaca fascicularis)); test: SPR Biacore T200, MfArtemin-MMH captured by anti-myc mAb, mAb injected, 25 C
[8] = molecular target: T1, hArtemin-MMH; test: SPR Biacore T200, hArtemin-MMH captured by anti-myc mAb, mAb injected, 25 C
Protocol: (§1) The equilibrium dissociation constant (KD) for Artemin binding to each of Artemin monoclonal antibodies (mAbs) H4H33331P, H4H33335P, H4H33336P, and H4H33349P was determined using a real-time surface plasmon resonance Biacore T200 biosensor. All binding studies were performed in 10 mM HEPES, 150 mM NaCl, 3 mM EDTA, and 0.05% v/v Surfactant Tween-20, pH 7.4 (HBS-ET) running buffer at 25° C. The Biacore CM4 sensor chip surface was first derivatized by amine coupling with anti-myc mAb to capture hArtemin-MMH, MfArtemin-MMH, or mArtemin-MMH. Different concentrations of Artemin mAbs (60-2.2 nM, 3-fold serial dilution) prepared in […] running buffer were injected over the Artemin-captured surfaces for 3 min at a flow rate of 50 μL/min and their dissociation in HBS-ET running buffer was monitored for 5 minutes. At the end of each cycle, the Artemin-captured surfaces were regenerated using a 6 sec injection of 20 mM phosphoric acid.
(§2) The association rate (kₐ) and dissociation rate (kd) were determined by fitting the real-time binding sensorgrams to a 1:1 binding model with mass transport limitation using Scrubber 2.0c curve-fitting software. Binding dissociation equilibrium constant (KD) and dissociative half-life (t½) were calculated from the kinetic rates as: KD (M)=kd/kₐ, and t_{1/2} (min)=[In2/(60*kd)].

[9] = molecular target: T2, mArtemin-MMH; test: SPR Biacore T200, mArtemin-MMH captured by anti-myc mAb, mAb injected, 25 C
Protocol: as §1, §2

[10] = molecular target: T3, MfArtemin-MMH (cynomolgous monkey (Macaca fascicularis)); test: cell-based or functional assay
T3 chain: T1 chain with A8P, V76I

[11] = molecular target: T1, hArtemin-MMH; test: BLI (Octet HTX), mAb captured on AHC tips, artemin at 15 nM, 25 C
Protocol: (§3) The entire experiment was performed at 25° C. in 10 mM HEPES, 150 mM NaCl, 3 mM EDTA, 0.02% NaN3 and 0.05% v/v Surfactant Tween-20, 1 mg/mL BSA, pH7.4 (HBS-EBT) buffer with the plate shaking at a speed of 1000 rpm. Different Artemin mAbs were first captured onto anti-human antibody (AHC) coated Octet biosensor tips (Fortebio Inc, #18-5064) by submerging the biosensor tips for 40 seconds in wells containing 2 μg/mL of Artemin mAb. […] All the Artemin and Artemin mAb samples were prepared in HBS-EBT buffer. The real-time binding response was monitored during the entire course of the experiment and the binding response at the end of every step was recorded.

[12] = molecular target: T3, MfArtemin-MMH; test: as above
Protocol: as §3

[13] = molecular target: T2, mArtemin-MMH; test: as above
Protocol: as §3

[14] = molecular target: T1, hArtemin-MMH; test: BLI (Octet HTX), mAb captured on AHC tips, artemin at 30 nM, 25 C
Protocol: as §3

[15] = molecular target: T3, MfArtemin-MMH; test: as above
Protocol: as §3

[16] = molecular target: T2, mArtemin-MMH; test: as above
Protocol: as §3

[17] = molecular target: T1, hArtemin-MMH; test: BLI (Octet HTX), mAb captured on AHC tips, artemin at 7.5 nM, 25 C
Protocol: as §3

[18] = molecular target: T3, MfArtemin-MMH; test: as above
Protocol: as §3

[19] = molecular target: T2, mArtemin-MMH; test: as above
Protocol: as §3

[20] = molecular target: T1, hArtemin-MMH; test: BLI (Octet HTX), mAb captured on AHC tips, artemin at 3.75 nM, 25 C
Protocol: as §3

[21] = molecular target: T3, MfArtemin-MMH; test: as above
Protocol: as §3

[22] = molecular target: T2, mArtemin-MMH; test: as above
Protocol: as §3

[23] = molecular target: T3, MfArtemin-MMH; test: SPR Biacore T200, MfArtemin-MMH captured by anti-myc mAb, mAb injected, 25 C
Protocol: as §1, §2

[24] = molecular target: T1, hArtemin-MMH; test: blocking ELISA, antibody blocks 75 pM hARTN.mmh binding to plate-coated hGFRa3.hFc
Protocol: (§4) Experiments were carried out using the following procedures. Plates were coated with hGFRa3.hFc at 2 μg/ml in PBS on a 96-well microtiter plate at 4° C. overnight for all three assays. […] In other microtiter plates, a constant amount of either 75 pM hARTN.mmh, 400 pM mfARTN.mmh, or 150 pM msARTN.mmh were separately bound with anti-ARTN antibodies and an irrelevant IgG4 antibody control at a serial dilution series from 0.0017 nM to 100 nM in PBS+0.5% BSA. After a one-hour incubation, the mixture solutions were transferred to microtiter plates coated with hGFRa3.hFc. After one hour of incubation at RT, the wells were washed with PBST, and plate-bound ARTN was detected with an anti-penta-His antibody conjugated with horseradish peroxidase (HRP) (Qiagen). The plates were then developed using TMB substrate solution (BD Biosciences, #555214) according to manufacturer's recommendation and absorbance at 450 nm was measured on a Victor X5 plate reader.
(§5) Binding data were analyzed using a sigmoidal dose-response model within Prism™ software (GraphPad). […] If the calculated IC50 value was below the LLOA, less than LLOA was reported. Percent blocking at 100 nM antibody was calculated based on the background-corrected binding signal observed at the highest antibody concentration tested using the formula listed below and reported for all tested antibodies: […]

[25] = molecular target: T2, mArtemin-MMH; test: blocking ELISA, antibody blocks 150 pM msARTN.mmh binding to plate-coated hGFRa3.hFc
Protocol: as §4, §5

[26] = molecular target: T3, MfArtemin-MMH; test: blocking ELISA, antibody blocks 400 pM mfARTN.mmh binding to plate-coated hGFRa3.hFc
Protocol: as §4, §5

Isotype Control mAb (antibody)
Max inhibition (%), SRE-luciferase reporter, 3 nM mfArtemin [1]: 10% | Max inhibition (%), SRE-luciferase reporter, 500 pM hArtemin [2]: 9% | Max inhibition (%), SRE-luciferase reporter, 1 nM mArtemin [3]: 1% | % Blocking with 100 nM Ab [4]: -3% | % Blocking with 100 nM Ab [5]: -31% | % Blocking with 100 nM Ab [6]: -28% | 60 nM Artemin mAb Bound (RU) [7]: 0 RU | 60 nM Artemin mAb Bound (RU) [8]: 0 RU | 60 nM Artemin mAb Bound (RU) [9]: 0 RU

B1: H4H33335P (antibody, human IgG4 S228P, kappa, V domains shown)
VH: EVQLVESGGGLVQPGGSLRLSCAASGFTFSSYDMHWVRQATGKGLEWVSTIDTAGDTYYPGSVKGRFTISRENAKNSLYLQMNSLRAGDTAVYYCARDGELELQGYFDLWGRGTLVTVSS
VL: DIQMTQSPSSLSASVGDRVTITCRASQIISIYLNWYQQKPGKAPKLLIYAASSLQSGVPSRFSGSGSGTDFTLTISSLQPEDFATYYCQQSYTTPLTFGGGTKVEIKR
notes: Fully human antibody; also called Artemin mAb; anti-ARTN antibody
Max inhibition (%), SRE-luciferase reporter, 500 pM hArtemin [2]: 100% | Max inhibition (%), SRE-luciferase reporter, 3 nM mfArtemin [10]: 100% | Max inhibition (%), SRE-luciferase reporter, 1 nM mArtemin [3]: 95% | Artemin Binding Response (nm) [11]: 0.11 nm | Artemin Binding Response (nm) [12]: 0.04 nm | Artemin Binding Response (nm) [13]: 0.07 nm | Artemin Binding Response (nm) [14]: 0.11 nm | Artemin Binding Response (nm) [15]: 0.09 nm | Artemin Binding Response (nm) [16]: 0.08 nm | Artemin Binding Response (nm) [17]: 0.07 nm | Artemin Binding Response (nm) [18]: 0 nm | Artemin Binding Response (nm) [19]: 0.05 nm | Artemin Binding Response (nm) [20]: 0.02 nm | Artemin Binding Response (nm) [21]: 0 nm | Artemin Binding Response (nm) [22]: 0.02 nm | 60 nM Artemin mAb Bound (RU) [8]: 4 RU | Kd [8]: 2.22 nM | koff [8]: 0.00019 s⁻¹ | kon [8]: 85300 M⁻¹ s⁻¹ | t½ [8]: 1.02 h | 60 nM Artemin mAb Bound (RU) [9]: 3 RU | 60 nM Artemin mAb Bound (RU) [23]: 3 RU | % Blocking with 100 nM Ab [24]: 65% | IC50 [24]: 0.505 nM | % Blocking with 100 nM Ab [25]: 63% | IC50 [25]: 0.0876 nM | % Blocking with 100 nM Ab [26]: 71% | IC50 [26]: 0.233 nM
